Results from the nanobody polyreactivity screen of Harvey et al. (2022).

Test: yeast display, Sf9 membrane polyspecificity reagent, FACS + sequencing; frameworks hold sequencing errors
How it was run: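 Using colony PCR, genes from sorted yeast display clones were amplified, then sequenced on MiSeq at 2 × 250 and filtered by CDR length. The clones had been stained with 10% biotinylated, detergent-solubilized Sf9 membrane reagent for 1 hour at 4 °C and sorted by FACS into low and high (top ~1%) gates on anti-HA and streptavidin fluorescence. Polyreactivity labels come from the gate of origin.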

Sequence | polyreactivity (PSR sort gate)
QVQLVESGGGLVQAGGSLRLSCAASGITFGDYAMGWDRQAPGKERELVAAISTSGVRTYYADSVKGRFTISRDNAKNTVYLQMNSLKPEDTAVYYCNARDYSGFQTGASAAFDYWGQGTQVTVSS | low polyreactivity
QVQLVESGGGLVQAGGSLRLSCAASGITFGGNAMGWYRQAPGKERELVAAISSSGGSTYYADSVKGRFTISRDNAKNTVYLQMNSLKPEDTAVYYCAARNRYPLRFYYWGQGTQVTVSS | high polyreactivity
QVQLVESGGGLVQAGGSLRLSCAASGITFGGYAMGWYRQAPGKERELVASIRSGSSTNYADSVKGRFTISRDNAKNTVYLQMNSLKPEDTAVYYCAARNFRNRYGYWGQGTQVTVSS | high polyreactivity
QVQLVESGGGLVQAGGSLRLSCAASGITFGPYAMGWYRQAPGKERELVAAITWGGGSTYYADSVKGRFTISRDNAKNTVYLQMNSLKPEDTAVYYCNAEGSTTSRYLPYDYWGQGTQVTVSS | low polyreactivity
QVQLVESGGGLVQAGGSLRLSCAASGITFGRNTMGWYRQAPGKERELVAAIRSGGSTNYADSVKGRFSISRDNAKNTVYLLMNSLKPEDPAVYYWNAQPWVRFWPYDYWGQGTQVTVSS | low polyreactivity
QVQLVESGGGLVQAGGSLRLSCAASGITFGSNAMGWYRQAPGKERELVAAINSGGTTTYADSVKGRFTISRDNAKNTVYLQMNSLKPEDTAVYYCAVSGGASYQFVGSPDTEHDYWGQGTQVTVSS | low polyreactivity
QVQLVESGGGLVQAGGSLRLSCAASGITFGTNAMGWYRQAPGKERELVAAISGGGGSTYYADSVKGRFTISRDNAKYTVYLQMTCLKPEDTAFYYCAARRFKRSSLSFYVGYYYWGQGTQVTVSS | high polyreactivity
QVQLVESGGGLVQAGGSLRLSCAASGITFGTYAMGWYRQAPGKERELDAAIDTSGDDTYYADSVKGRFTISRDNAKNTVYLQMNSLKPEDTAVYYCAADFPSAEVDYWGQGTQVTVSS | low polyreactivity
QVQLVESGGGLVQAGGSLRLSCAASGITFGVYALGWSRQARGNERELVAAISVNGGSTYYADSVKGRYTISRDNAKNTVYLQMNSLKPEDTAVYYCAADVLYYIDDDSIIEYDYWGQGTQVTVSS | low polyreactivity
QVQLVESGGGLVQAGGSLRLSCAASGITFGVYAMGWYRQAPGKERELVAAISWSVGSTYYADSVKGRFTISRDNAKNTVYLQMNSLKPEDTAVYYCAAYYGVGFDYWGQGTQVTVSS | high polyreactivity
QVQLVESGGGLVQAGGSLRLSCAASGITFGVYTMGWYRQAPGKEREFVAVISGRGGSTYYADSVKGRFTISRDNAKNTVYLQMNSLKPEDTAVYYCAADYYYIVDYWGQGTQVTVSS | high polyreactivity
QVQLVESGGGLVQAGGSLRLSCAASGITFGWYAMGWYRQAPGKERELVAAISWSGGTTYYADSVKGRFTISRDNAKNTVYLQMNSLKPEDTAVYYCAATWYYPTVYAGNYWGQGTQVTVSS | high polyreactivity
QVQLVESGGGLVQAGGSLRLSCAASGITFGYYAMGWSRQAPGKERELVAAIRSSGGSTYYADSVKGRFTISRDNAKNNVYLQMNSLKPEDTAVYYCNARYRKSSRPGYEPYERYYWGQGTQVTVSS | high polyreactivity
QVQLVESGGGLVQAGGSLRLSCAASGITFGYYARGGYRQAPGNERELVAAISRNGGSTYYADSVKGRFTISRDNAKNTVYLQMNSLKPEDTAVYYCNARGNQAVIGYEYWGQGTQVTVSS | high polyreactivity
QVQLVESGGGLVQAGGSLRLSCAASGITFHDNAMGWYRQAPGKERELVAVITRRGGRTYYADSVKGRFTISRDNAKNTVYLQMNSLKPEDTAVYYCAAYYDYTHRFYYWGQGTQVTVSS | high polyreactivity
QVQLVESGGGLVQAGGSLRLSCAASGITFHGYAMGWYRQAPGKERELVAAISDSGSSTYYADSVKGRFTISRDNAKNTVYLQMNSLKPEDTAVYYCAAVSGFYDQYDYWGQGTQVTVSS | low polyreactivity
QVQLVESGGGLVQAGGSLRLSCAASGITFHRNTMGWYRQAPGTETELVDSITSGGITYYADSVKGSFTISRDNEKNTVYLQMNSLKPEDTAVYYCAAEGYWTYWVARSDIPYFYWGQGSQVTVSS | high polyreactivity
QVQLVESGGGLVQAGGSLRLSCAASGITFHVNAMGWYRQAPGKERELVARITTSGGSTSYADSVKGRFTISRDNAKNTVYLQMNSLKPEDTAVYYCAADLARYYSEYDYWGQGTQVTVSS | low polyreactivity
QVQLVESGGGLVQAGGSLRLSCAASGITFIAYTMGWYRQAPGKERELVAGISRNGGRTYYADSVKGRFTISRDNAKNTVYLQMNSLKPEDTAVYYCNKVVSTYSSIKYDYWGQGTQVTVSS | high polyreactivity
QVQLVESGGGLVQAGGSLRLSCAASGITFISYVKGWYRQAPGKEREVVAAISKRGGSTYYADSVKGRFTISRDNAKNTVYFKINSLKAEDTAVYYCAAKTIPWSVGYDYWGQGTQVTVSS | high polyreactivity
QVQLVESGGGLVQAGGSLRLSCAASGITFIVNAMGWYRQAPGKERELVARITTSGGSTSYADSVKGRFTISRDNAKYTVYLQMYSLKPEDSAVYYCAADRGGYYSEYDYWGQGTQVTVSS | low polyreactivity
QVQLVESGGGLVQAGGSLRLSCAASGITFIYYAMGWYRQAPGKERELVAAISTGGSTYYADSVKGRCTISRDNAKNTVYLQRKSLKPEDTAVYFWNALRKSLRGGDYWGQGTQVTVSS | high polyreactivity

Sequence | polyreactivity (PSR sort gate)
QVQLVESGGGLVQAGGSLRLSCAASGITFKAYAMGWYRQAPGKERELVAAINTSGARTYYADSVKGRFTISRDNAKNTVYLQMNSLKTEDTAVYYCNARLHQQEGDDWGQGTQVTVSS | low polyreactivity
QVQLVESGGGLVQAGGSLRLSCAASGITFKRYAMGWYRQAPGKERELVAAITISAGSTYYADSVKGRFTISRDNAKNNVYLQMNSLKPEDTAVYYCAAESYGSWYYYWGQGTQVTVSS | high polyreactivity
QVQLVESGGGLVQAGGSLRLSCAASGITFKRYTMGWYRQAPGKERELVADITWSGGSTYADSVKGRFTISRDNAKNTVYLQMNSLKPEDTAVYYCAAEWQTWYGVEYDYWGQGTQVTVSS | high polyreactivity
QVQLVESGGGLVQAGGSLRLSCAASGITFKSNAMGWYRQAPGKERELVAAISRRASSTYYADSVKGRFTISRDNAKNTVYLQMNSLKPEDTAVYYCNAVLPVYRTNMDYWGQGTQVTVST | high polyreactivity
QVQLVESGGGLVQAGGSLRLSCAASGITFKSYAMGWYRKAPGKERELVAAITRSGGSTYYADSVKGRLTISRDNAKNTVYLQMNSLKPEDTAVYYCAARYFIAYPQYTYDYWGQGTQVTVSS | high polyreactivity
QVQLVESGGGLVQAGGSLRLSCAASGITFKTYAMGWYRQAPGKERELVATINRGSRTNYADSVKGRFTISRDNAKNTVYLQMNSLKPEDTAVYYCAAEYVTYISSEMDYWGQGTQVTVSS | low polyreactivity
QVQLVESGGGLVQAGGSLRLSCAASGITFKTYTMGWYRQAPGKERELVAAITRSGAGTYYADSVKGRFTISRDNAKNTVDLQMNSLKPEDTAVYYCAARVRWGYRYGYWGQGTQVTVSS | high polyreactivity
QVQLVESGGGLVQAGGSLRLSCAASGITFKVYAMGWYRQAPRKEREFVAAITYSGGRTYYADSVKGRFTISRDNAKNTVYLQMNSLQPEDTAVYYCAKEYGIYTDTPYYYWGQGTQVTVSS | low polyreactivity
QVQLVESGGGLVQAGGSLRLSCAASGITFKWYAMGWYRQAPGKERELVAAISWSTGSTYYADSVKGRFTISRDNAKNTVYLQMNSLKPEDTSVYYCAARVKRPQTGYDRRYGYWGQGTQVTVSS | high polyreactivity
QVQLVESGGGLVQAGGSLRLSCAASGITFKYYAMGWYRQAPGKERELVAAINWSGDRTYYADSVKGRFTISRDNAKNTVYLQMNSLKPEDTAVYYCAATAWPGRYWRQEVDYWGQGTQVTVSS | high polyreactivity
QVQLVESGGGLVQAGGSLRLSCAASGITFLDYAMGWYRQAPGKERELVADISTSGGSTYYADSVKGRFTISRDNAKNTVYLQMNSLKPEDTAVYYCAADTFDFWWSLGSMDYWGQGTQVTVSS | high polyreactivity
QVQLVESGGGLVQAGGSLRLSCAASGITFLFYAMGWYIPAPGKEREYVAAISTRGGRTYYADSVKGRFTISRDNAKNTVYLQMNSLKPEDTAVYYCAADFYYRTVATVTSVARYDYWGQGTQVTVSS | high polyreactivity
QVQLVESGGGLVQAGGSLRLSCAASGITFLFYARGWYRKAPGKERELVAAISSGDNTYYADSVKGRFTISRDNGKNTVYLQMKSLKPDDTAVYYCAAEKYGYDYWGQGTQVTVSS | low polyreactivity
QVQLVESGGGLVQAGGSLRLSCAASGITFLGYVMGWYRQAPGKEREFVADITESGGRTYYADSVKGRFTISRDNAKNTVYLQMNSLKPEDTAVYYCAAELSYWGYYYSFDYWGQGTQVTVSS | low polyreactivity
QVQLVESGGGLVQAGGSLRLSCAASGITFLHYALGWYRQAPGKERELDAAISVRGGITYYADSVKGRFTISRDNAKNTVYLQMHSLKPEDTAVFYCAADRPKFYNSIYDYWGQGTQVTVSS | low polyreactivity
QVQLVESGGGLVQAGGSLRLSCAASGITFLKNAMGWYRQAPGKERELVAAISSSGGSTYYADSVKGRFTISRDNAKNTVYLQMNSLKPEDTAVYFCAARIYWYTPGRRGYTYDYWGQGTQVTVSS | high polyreactivity
QVQLVESGGGLVQAGGSLRLSCAASGITFLNYAMGWYRQAPGKERELVAAISWSGGRTYYADSVKGRFTISRDKGKNTVYLQMNSLKPEDTAVYYCAADRGVNSYGYWGQGTQVTVSS | high polyreactivity
QVQLVESGGGLVQAGGSLRLSCAASGITFLPYAMGWYRPAPGKERELVAAITRGGGSTYADSVKGRFTISRDNAKNTVYLQMNSLKPEDTAVYYCAKRYGRVSWYEDYDYWGQGTQVTVSS | low polyreactivity
QVQLVESGGGLVQAGGSLRLSCAASGITFLPYTMGWYRQAPGKERELVATISWNGGSTYYADSVKGRFTISRDNAKNTVYLQMNSLKPEDTAVYYCAARQVQAPRSIGFYYWGQGTQVTVSS | high polyreactivity
QVQLVESGGGLVQAGGSLRLSCAASGITFLYYAMGRYRPAPGKERELVAAITGDGSTTYADSVKGRFTISRDNAKNTVYLQMNSLKPEDTAGYYCAADDQYYGDGFWGQGTQLTVSS | high polyreactivity
QVQLVESGGGLVQAGGSLRLSCAASGITFNAYAMGWYRQAPGKERELVAAITSSGSSTYYADSVKGRFTISRDYAKNTVYLQMNSLKPDDTAVYYCAATRGTKFYWGQGTQVTVSS | high polyreactivity
